Test results from US20180086841A1.

Tests used:
[1] = target: Q15A; assay: flow cytometry on CHO-K1 transfectants, left sub-column, cell hatched (loss of binding)
[2] = target: K17A; assay: as above
[3] = target: D32A; assay: as above
[4] = target: Q15A; assay: flow cytometry on CHO-K1 transfectants, right sub-column, cell hatched (loss of binding)
[5] = target: K17A; assay: as above
[6] = target: D32A; assay: as above
[7] = target: I46A; assay: flow cytometry on CHO-K1 transfectants, right sub-column
[8] = target: G16A; assay: as above
[9] = target: D43A; assay: as above
[10] = target: N88A; assay: as above
[11] = target: P44A; assay: as above
[12] = target: H60A; assay: as above
[13] = target: K31A; assay: as above
[14] = target: R93A; assay: as above
[15] = target: G89A; assay: as above
[16] = target: W13A; assay: as above
[17] = target: S63A; assay: as above
[18] = target: P8A; assay: as above
[19] = target: Q91A; assay: as above
[20] = target: E9A; assay: as above
[21] = target: W90A; assay: as above
[22] = target: F28A; assay: as above
[23] = target: R37A; assay: as above
[24] = target: K38A; assay: as above
[25] = target: R10A; assay: as above
[26] = target: V30A; assay: as above
[27] = target: V49A; assay: as above
[28] = target: Q41A; assay: as above
[29] = target: R87A; assay: as above
[30] = target: H36A; assay: as above
[31] = target: I46A; assay: flow cytometry on CHO-K1 transfectants, left sub-column
[32] = target: G16A; assay: as above
[33] = target: D43A; assay: as above
[34] = target: N88A; assay: as above
[35] = target: P44A; assay: as above
[36] = target: H60A; assay: as above
[37] = target: K31A; assay: as above
[38] = target: R93A; assay: as above
[39] = target: G89A; assay: as above
[40] = target: W13A; assay: as above
[41] = target: S63A; assay: as above
[42] = target: P8A; assay: as above
[43] = target: Q91A; assay: as above
[44] = target: E9A; assay: as above
[45] = target: W90A; assay: as above
[46] = target: F28A; assay: as above
[47] = target: R37A; assay: as above
[48] = target: K38A; assay: as above
[49] = target: R10A; assay: as above
[50] = target: V30A; assay: as above
[51] = target: V49A; assay: as above
[52] = target: Q41A; assay: as above
[53] = target: R87A; assay: as above
[54] = target: H36A; assay: as above
[55] = target: R37A; assay: flow cytometry on CHO-K1 transfectants, left sub-column, cell hatched (loss of binding)
[56] = target: K38A; assay: as above
[57] = target: R37A; assay: flow cytometry on CHO-K1 transfectants, right sub-column, cell hatched (loss of binding)
[58] = target: K38A; assay: as above
[59] = target: Q15A; assay: flow cytometry on CHO-K1 transfectants, right sub-column
[60] = target: K17A; assay: as above
[61] = target: D32A; assay: as above
[62] = target: Q15A; assay: flow cytometry on CHO-K1 transfectants, left sub-column
[63] = target: K17A; assay: as above
[64] = target: D32A; assay: as above

Chain of K38A (receptor chain, as listed by the source K38A K38A limits assumed): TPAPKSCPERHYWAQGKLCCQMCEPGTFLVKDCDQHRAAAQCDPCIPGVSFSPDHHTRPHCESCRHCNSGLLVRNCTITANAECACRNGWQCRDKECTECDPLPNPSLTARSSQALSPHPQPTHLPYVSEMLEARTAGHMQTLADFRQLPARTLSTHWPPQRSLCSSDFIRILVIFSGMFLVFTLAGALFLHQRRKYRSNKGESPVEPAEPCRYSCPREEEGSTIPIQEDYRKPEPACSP
Chain of R37A (receptor chain, as listed by the source R37A R37A limits assumed): as the sequence (receptor chain, as listed by the source K38A K38A limits assumed) above, with R37A, A38K counted along it
Chain of R87A (receptor chain, as listed by the source R87A R87A limits assumed): as the sequence (receptor chain, as listed by the source K38A K38A limits assumed) above, with A38K, R87A counted along it
Chain of R93A (receptor chain, as listed by the source R93A R93A limits assumed): as the sequence (receptor chain, as listed by the source K38A K38A limits assumed) above, with A38K, R93A counted along it
Chain of P44A (receptor chain, as listed by the source P44A P44A limits assumed): as the sequence (receptor chain, as listed by the source K38A K38A limits assumed) above, with A38K, P44A counted along it
Chain of D43A (receptor chain, as listed by the source D43A D43A limits assumed): as the sequence (receptor chain, as listed by the source K38A K38A limits assumed) above, with A38K, D43A counted along it
Chain of K31A (receptor chain, as listed by the source K31A K31A limits assumed): as the sequence (receptor chain, as listed by the source K38A K38A limits assumed) above, with K31A, A38K counted along it
Chain of G89A (receptor chain, as listed by the source G89A G89A limits assumed): as the sequence (receptor chain, as listed by the source K38A K38A limits assumed) above, with A38K, G89A counted along it
Chain of W90A (receptor chain, as listed by the source W90A W90A limits assumed): as the sequence (receptor chain, as listed by the source K38A K38A limits assumed) above, with A38K, W90A counted along it
Chain of Q41A (receptor chain, as listed by the source Q41A Q41A limits assumed): as the sequence (receptor chain, as listed by the source K38A K38A limits assumed) above, with A38K, Q41A counted along it
Chain of V30A (receptor chain, as listed by the source V30A V30A limits assumed): as the sequence (receptor chain, as listed by the source K38A K38A limits assumed) above, with V30A, A38K counted along it
Chain of P8A (receptor chain, as listed by the source limits assumed): as the sequence (receptor chain, as listed by the source K38A K38A limits assumed) above, with P8A, A38K counted along it
Chain of I46A (receptor chain, as listed by the source I46A I46A limits assumed): as the sequence (receptor chain, as listed by the source K38A K38A limits assumed) above, with A38K, I46A counted along it
Chain of K17A (receptor chain, as listed by the source K17A K17A limits assumed): as the sequence (receptor chain, as listed by the source K38A K38A limits assumed) above, with K17A, A38K counted along it
Chain of S63A (receptor chain, as listed by the source S63A S63A limits assumed): as the sequence (receptor chain, as listed by the source K38A K38A limits assumed) above, with A38K, S63A counted along it
Chain of W13A (receptor chain, as listed by the source W13A W13A limits assumed): as the sequence (receptor chain, as listed by the source K38A K38A limits assumed) above, with W13A, A38K counted along it
Chain of F28A (receptor chain, as listed by the source F28A F28A limits assumed): as the sequence (receptor chain, as listed by the source K38A K38A limits assumed) above, with F28A, A38K counted along it
Chain of R10A (receptor chain, as listed by the source R10A R10A limits assumed): as the sequence (receptor chain, as listed by the source K38A K38A limits assumed) above, with R10A, A38K counted along it
Chain of H36A (receptor chain, as listed by the source H36A H36A limits assumed): as the sequence (receptor chain, as listed by the source K38A K38A limits assumed) above, with H36A, A38K counted along it
Chain of H60A (receptor chain, as listed by the source H60A H60A limits assumed): as the sequence (receptor chain, as listed by the source K38A K38A limits assumed) above, with A38K, H60A counted along it
Chain of N88A (receptor chain, as listed by the source N88A N88A limits assumed): as the sequence (receptor chain, as listed by the source K38A K38A limits assumed) above, with A38K, N88A counted along it
Chain of G16A (receptor chain, as listed by the source G16A G16A limits assumed): as the sequence (receptor chain, as listed by the source K38A K38A limits assumed) above, with G16A, A38K counted along it
Chain of Q91A (receptor chain, as listed by the source Q91A Q91A limits assumed): as the sequence (receptor chain, as listed by the source K38A K38A limits assumed) above, with A38K, Q91A counted along it
Chain of D32A (receptor chain, as listed by the source D32A D32A limits assumed): as the sequence (receptor chain, as listed by the source K38A K38A limits assumed) above, with D32A, A38K counted along it
Chain of E9A (receptor chain, as listed by the source limits assumed): as the sequence (receptor chain, as listed by the source K38A K38A limits assumed) above, with E9A, A38K counted along it
Chain of V49A (receptor chain, as listed by the source V49A V49A limits assumed): as the sequence (receptor chain, as listed by the source K38A K38A limits assumed) above, with A38K, V49A counted along it
Chain of Q15A (receptor chain, as listed by the source Q15A Q15A limits assumed): as the sequence (receptor chain, as listed by the source K38A K38A limits assumed) above, with Q15A, A38K counted along it

1A4 (mouse IgG1) (antibody) was tested, and the binding, WT hCD27 = 100 (GM FITC) [1] was 32%, the binding, WT hCD27 = 100 (GM FITC) [2] was 32.4% and the binding, WT hCD27 = 100 (GM FITC) [3] was 43.7%. It also gave a binding, WT hCD27 = 100 (GM FITC) [4] of 7.6%, a binding, WT hCD27 = 100 (GM FITC) [5] of 6.8% and a binding, WT hCD27 = 100 (GM FITC) [6] of 8.7%. It also gave a binding, WT hCD27 = 100 (GM FITC) [7] of 82.7%, a binding, WT hCD27 = 100 (GM FITC) [8] of 97.3% and a binding, WT hCD27 = 100 (GM FITC) [9] of 93.4%. The binding, WT hCD27 = 100 (GM FITC) [10] was 116%, the binding, WT hCD27 = 100 (GM FITC) [11] was 90.5% and the binding, WT hCD27 = 100 (GM FITC) [12] was 120%. The binding, WT hCD27 = 100 (GM FITC) [13] was 138%, the binding, WT hCD27 = 100 (GM FITC) [14] was 91.1% and the binding, WT hCD27 = 100 (GM FITC) [15] was 81.8%. It also gave a binding, WT hCD27 = 100 (GM FITC) [16] of 93.4%, a binding, WT hCD27 = 100 (GM FITC) [17] of 163% and a binding, WT hCD27 = 100 (GM FITC) [18] of 79.1%. It also gave a binding, WT hCD27 = 100 (GM FITC) [19] of 120%, a binding, WT hCD27 = 100 (GM FITC) [20] of 122% and a binding, WT hCD27 = 100 (GM FITC) [21] of 96.4%. For the same substance, the binding, WT hCD27 = 100 (GM FITC) [22] was 60%, the binding, WT hCD27 = 100 (GM FITC) [23] was 87% and the binding, WT hCD27 = 100 (GM FITC) [24] was 97.7%. The binding, WT hCD27 = 100 (GM FITC) [25] was 113%, the binding, WT hCD27 = 100 (GM FITC) [26] was 102% and the binding, WT hCD27 = 100 (GM FITC) [27] was 97%. The binding, WT hCD27 = 100 (GM FITC) [28] was 76.1%, the binding, WT hCD27 = 100 (GM FITC) [29] was 108% and the binding, WT hCD27 = 100 (GM FITC) [30] was 85.2%. For the same substance, the binding, WT hCD27 = 100 (GM FITC) [31] was 129%, the binding, WT hCD27 = 100 (GM FITC) [32] was 90.8% and the binding, WT hCD27 = 100 (GM FITC) [33] was 195%. It also gave a binding, WT hCD27 = 100 (GM FITC) [34] of 154%, a binding, WT hCD27 = 100 (GM FITC) [35] of 146% and a binding, WT hCD27 = 100 (GM FITC) [36] of 167%. The binding, WT hCD27 = 100 (GM FITC) [37] was 194%, the binding, WT hCD27 = 100 (GM FITC) [38] was 120% and the binding, WT hCD27 = 100 (GM FITC) [39] was 100%. The binding, WT hCD27 = 100 (GM FITC) [40] was 89.1%, the binding, WT hCD27 = 100 (GM FITC) [41] was 158% and the binding, WT hCD27 = 100 (GM FITC) [42] was 84.5%. The binding, WT hCD27 = 100 (GM FITC) [43] was 146%, the binding, WT hCD27 = 100 (GM FITC) [44] was 98.2% and the binding, WT hCD27 = 100 (GM FITC) [45] was 123%. The binding, WT hCD27 = 100 (GM FITC) [46] was 113%, the binding, WT hCD27 = 100 (GM FITC) [47] was 115% and the binding, WT hCD27 = 100 (GM FITC) [48] was 104%. It also gave a binding, WT hCD27 = 100 (GM FITC) [49] of 107%, a binding, WT hCD27 = 100 (GM FITC) [50] of 161% and a binding, WT hCD27 = 100 (GM FITC) [51] of 144%. For the same substance, the binding, WT hCD27 = 100 (GM FITC) [52] was 106%, the binding, WT hCD27 = 100 (GM FITC) [53] was 143% and the binding, WT hCD27 = 100 (GM FITC) [54] was 111%.

Work on 9F4 (mouse IgG2a) (antibody) yielded a binding, WT hCD27 = 100 (GM FITC) [55] of 35%, a binding, WT hCD27 = 100 (GM FITC) [56] of 44.7% and a binding, WT hCD27 = 100 (GM FITC) [57] of 6.2%. The binding, WT hCD27 = 100 (GM FITC) [58] was 31.6%, the binding, WT hCD27 = 100 (GM FITC) [7] was 82.7% and the binding, WT hCD27 = 100 (GM FITC) [59] was 118%. It also gave a binding, WT hCD27 = 100 (GM FITC) [8] of 102%, a binding, WT hCD27 = 100 (GM FITC) [9] of 92.5% and a binding, WT hCD27 = 100 (GM FITC) [10] of 104%. For the same substance, the binding, WT hCD27 = 100 (GM FITC) [60] was 106%, the binding, WT hCD27 = 100 (GM FITC) [11] was 91.7% and the binding, WT hCD27 = 100 (GM FITC) [12] was 126%. For the same substance, the binding, WT hCD27 = 100 (GM FITC) [13] was 133%, the binding, WT hCD27 = 100 (GM FITC) [14] was 91.1% and the binding, WT hCD27 = 100 (GM FITC) [15] was 77.5%. It also gave a binding, WT hCD27 = 100 (GM FITC) [16] of 86.5%, a binding, WT hCD27 = 100 (GM FITC) [17] of 149% and a binding, WT hCD27 = 100 (GM FITC) [18] of 62.2%. For the same substance, the binding, WT hCD27 = 100 (GM FITC) [19] was 111%, the binding, WT hCD27 = 100 (GM FITC) [20] was 109% and the binding, WT hCD27 = 100 (GM FITC) [21] was 85.7%. For the same substance, the binding, WT hCD27 = 100 (GM FITC) [22] was 58.2%, the binding, WT hCD27 = 100 (GM FITC) [25] was 99% and the binding, WT hCD27 = 100 (GM FITC) [26] was 95.6%. The binding, WT hCD27 = 100 (GM FITC) [27] was 92.1%, the binding, WT hCD27 = 100 (GM FITC) [28] was 71.3% and the binding, WT hCD27 = 100 (GM FITC) [61] was 66.3%. For the same substance, the binding, WT hCD27 = 100 (GM FITC) [29] was 98.8%, the binding, WT hCD27 = 100 (GM FITC) [30] was 66.5% and the binding, WT hCD27 = 100 (GM FITC) [31] was 137%. It also gave a binding, WT hCD27 = 100 (GM FITC) [62] of 107%, a binding, WT hCD27 = 100 (GM FITC) [32] of 94.7% and a binding, WT hCD27 = 100 (GM FITC) [33] of 201%. It also gave a binding, WT hCD27 = 100 (GM FITC) [34] of 153%, a binding, WT hCD27 = 100 (GM FITC) [63] of 98% and a binding, WT hCD27 = 100 (GM FITC) [35] of 159%. It also gave a binding, WT hCD27 = 100 (GM FITC) [36] of 185%, a binding, WT hCD27 = 100 (GM FITC) [37] of 207% and a binding, WT hCD27 = 100 (GM FITC) [38] of 122%. The binding, WT hCD27 = 100 (GM FITC) [39] was 116%, the binding, WT hCD27 = 100 (GM FITC) [40] was 90.7% and the binding, WT hCD27 = 100 (GM FITC) [41] was 153%. The binding, WT hCD27 = 100 (GM FITC) [42] was 68.5%, the binding, WT hCD27 = 100 (GM FITC) [43] was 149% and the binding, WT hCD27 = 100 (GM FITC) [44] was 96.6%. For the same substance, the binding, WT hCD27 = 100 (GM FITC) [45] was 130%, the binding, WT hCD27 = 100 (GM FITC) [46] was 115% and the binding, WT hCD27 = 100 (GM FITC) [49] was 104%. The binding, WT hCD27 = 100 (GM FITC) [50] was 166%, the binding, WT hCD27 = 100 (GM FITC) [51] was 151% and the binding, WT hCD27 = 100 (GM FITC) [52] was 113%. The binding, WT hCD27 = 100 (GM FITC) [64] was 118%, the binding, WT hCD27 = 100 (GM FITC) [53] was 153% and the binding, WT hCD27 = 100 (GM FITC) [54] was 88.5%.
